# Experimental data published in US9670264B2, “Water soluble G-protein coupled receptor” (The Trustees of The University of Pennsylvania, priority 2013, dated 2017).
# Tests used:
# [1] = Secondary structure by circular dichroism (CD); format: physicochemical; details: CD 205-260 nm
# Description: The CD spectra indicated predominantly helical structures with a helical secondary structure content of ˜48% (estimations based on the molar ellipticity over the range 205 to 260 nm). The comparison of the helical content with that of the native human MUR expressed in yeast system in the presence of high concentration of detergent (0.1% SDS) is presented in Table 1.
# [2] = system: human μ opioid receptor expressed in HEK293 cells; experiment: Binding competition assay (TR-FRET/HTRF) between native human μ opioid receptor and water-soluble variants, with a fluorescent naltrexone-derived antagonist; details: FIG. 10, as for FIG. 7
# Description: FIG. 7. […] Data is used to calculate HTRF ratios, and represent the mean±standard error of mean of quadruplicates. ΔF is used for the comparison of different runs of the same assay which reflects the signal to background of the assay. ΔF=[(Ratiosample−Ratiobackgroud)/Ratiobackgroud] (%).
# A recently developed methodology which uses a fluorescently labeled ligand and the native MUR was used to investigate the ligand-binding capabilities of the water-soluble receptors.
# [3] = Thermostability monitored by CD (222 nm); format: physicochemical; details: 5 mM sodium phosphate, pH=7.0; for melting point: 0.01% SDS
# Description: The secondary structure of the water-soluble variant was determined through circular dichroism (CD). Circular dichroism (CD) spectra were recorded by using CD Spectrometer (Chirascan, AppliedPhotophysics Limited, Leatherhead, United Kingdom) with a scan speed of 1 nm/s and 1 mm path length. Corresponding blanks were used for calibration for each assay and subtracted from raw data. Two data sets were recorded and averaged to increase the signal-to-noise ratio. The CDNN CD spectra deconvolution software was utilized to determine the secondary structure content of the proteins. […] Absorbance was maintained lower than 1.0 to ensure sufficient light transmission. The temperature-dependence curve was plotted using GraphPad Prism® (version 5, GraphPad Software, Inc. La Jolla).
# [4] = Effects of denaturant (urea) and reducing agent (2-ME), by CD and intrinsic tryptophan fluorescence; format: physicochemical
# Description: CD and intrinsic tryptophan fluorescence were used to probe disulfide bond formation in the water-soluble variant. […] Even in 8 M urea, the protein retains some helical structure (Table 2). Upon addition of 2-ME, both the molar ellipticity and fluorescence further decreased, becoming more pronounced at the higher concentration of the reducing agent (200 mM). Thus the presence of an intramolecular disulfide bond is corroborated in the case of wsMUR-TM.
# Of particular interest are the tryptophan residues located in the partially buried transmembrane locations of the model structure (positions 194, 295, and 320). The fluorescence associated with these residues is expected to be sensitive to the local hydrophobic environment and overall folding of the protein.
# The decrease of the tryptophan fluorescence under denaturing conditions and in the presence of 2-ME is consistent with the changes in CD spectra observed under similar conditions. The requirement of the reducing agent to fully denature and unfold the protein indicates the relevance of an intramolecular disulfide bond in stabilizing the receptor structure. […] However, the CD and ligand-binding studies are consistent with the adoption of the proper protein tertiary structure and by extension with the formation of the correct disulfide bond.
# [5] = pH 7.0 + 0.1% SDS, expressed in yeast system
# [6] = None (no denaturant or reducing agent; normalisation reference)
molecule,measurement,setting,value
"Native MUR: native human μ receptor expressed in yeast system, in 0.1% SDS [reference compound]",Helix content,[1]; [5],40.6%
same,Others content,[1]; [5],40.5%
same,Turn content,[1]; [5],18.9%
wsMUR-TM+7mut: second wsMUR recombinant protein (protein) SMITAIKILEEYKKVCEEGRKGNKLVMEVIVRYTKMKTATNIYIFNLAKADALAESTLPFQSVNKLMGTWPFGTILCKKVISIDYYNMFTSIFTLCTMSVDRYIAVCHPVKALDFRTPRNAKEHNEKNWKLSSEIGKPVEKRATTKYRQGSIDCTLTFSHPTWYWEDKLKDTVFKKAFEEPVKVIKECYGLMILRLKSVRMLSGSKEKDRNLRRITRMVLVVVEVFIKCWTEIHKYVKEGKL,binding activity (interaction with naltrexone),[2],binding activity was also observed
wsMUR-TM: computationally designed transmembrane-only water-soluble variant of the human μ opioid receptor (protein) SMITAIKIHEEYKKVCEEGKKGNKLVMEVIVRYTKMKTATNIYIFNLAKADALAESTLPFQSVNKLMGTWPFGTILCKKVISIDYYNMFTSIFTLCTMSVDRYIAVCHPVKALDFRTPRNAKEENEKNWKLSSEIGKPVEKKATTKYRQGSIDCTLTFSHPTWYWEDKLKDEVFKKAFEEPVKKIKECYGLMILRLKSVRMLSGSKEKDRNLRRITRMVLVVVEVFIKCWTEIHKYVKEGKLVTIPETTFQTVSWHECIAKGYKNSCENPKLYEELDENFKRCFREFC,Helix content,[1]; pH 7.0 in NaHPO4,48.0%
same,Others content,[1]; pH 7.0 in NaHPO4,37.4%
same,Turn content,[1]; pH 7.0 in NaHPO4,14.6%
same,temperature at which almost fully unfolded (almost complete loss in molar ellipticity),[3]; 10 to 90° C.,90 °C
same,temperature at which ellipticity starts to be lost significantly,[3]; 10 to 90° C.,~62 °C
same,melting point,[3]; absence of cholesterol,82.9 °C
same,melting point,[3]; presence of cholesterol,89.3 °C
same,Fluorescence Peak Intensity (%; 300-350 nm),[4]; [6],100.0%
same,Molar Ellipticity (%; 222 nm),[4]; [6],100.0%
same,Fluorescence Peak Intensity (%; 300-350 nm),[4]; Urea (8M),28.4%
same,Molar Ellipticity (%; 222 nm),[4]; Urea (8M),40.0%
same,Fluorescence Peak Intensity (%; 300-350 nm),[4]; Urea (8M) 2-ME (25 mM),23.9%
same,Molar Ellipticity (%; 222 nm),[4]; Urea (8M) 2-ME (25 mM),25.1%
same,Fluorescence Peak Intensity (%; 300-350 nm),[4]; Urea (8M) 2-ME (200 mM),4.5%
same,Molar Ellipticity (%; 222 nm),[4]; Urea (8M) 2-ME (200 mM),0.0%
